Reference: doi:10.1101/2025.02.12.637899, “UB-MBX-46 is a potent and selective antagonist of the human P2X7 receptor developed by structure-based drug design” (bioRxiv, 2025)

Target: the molecule itself
Assay: cryo-EM structure; purified receptor in 20 mM HEPES pH 7.0, 100 mM NaCl, 0.5 mM C12M (DDM); apo, or incubated with 900 uM ATP or with antagonist at 3-4x the molar concentration of the monomer; homotrimer

| Protein | stoichiometry N |
| --- | --- |
| full-length wild-type mouse P2X7 receptor (receptor, UniProt Q9Z1M0 1-595, looked up, palmitoylation of residues on the C-cys anchor; limited glycosylation, acylation and palmitoylation modelled where density allowed, P2X7 receptor (P2X purinoceptor 7), mouse, full-length wild type, no mutations or truncations; UniProt Q9Z1M0; The construct carries a C-terminal GFP, a 3C protease site and a histidine tag; digested with HRV 3C protease before SEC; Homotrimer in the apo closed state structure; also called mP2X7R; mP2X7; source: HEK293 GNTI- cells, BacMam, purified (DDM/CHS, TALON, SEC); not shown: GFP, …) MPACCSWNDVLQYETNKVTRIQSTNYGTVKWVLHMIVFSYISFALVSDKLYQRKEPVISSVHTKVKGIAEVTENVTEGGVTKLGHSIFDTADYTFPLQGNSFFVMTNYVKSEGQVQTLCPEYPRRGAQCSSDRRCKKGWMDPQSKGIQTGRCVPYDKTRKTCEVSAWCPTEEEKEAPRPALLRSAENFTVLIKNNIHFPGHNYTTRNILPTMNGSCTFHKTWDPQCSIFRLGDIFQEAGENFTEVAVQGGIMGIEIYWDCNLDSWSHHCRPRYSFRRLDDKNTDESFVPGYNFRYAKYYKENNVEKRTLIKAFGIRFDILVFGTGGKFDIIQLVVYIGSTLSYFGLATVCIDLLINTYSSAFCRSGVYPYCKCCEPCTVNEYYYRKKCESIMEPKPTLKYVSFVDEPHIRMVDQQLLGKSLQVVKGQEVPRPQMDFSDLSRLSLSLHDSPLTPGQSEEIQLLHEEVAPKSGDSPSWCQCGNCLPSRLPEQRRALEELCCRRKPGRCITTSKLFHKLVLSRDTLQLLLLYQDPLLVLGEEATNSRLRHRAYRCYATWRFGSQDMADFAILPSCCRWRIRKEFPKTEGQYSGFKYPY | 3 |
| full-length wild-type human P2X7 receptor (receptor, UniProt Q99572 1-595, looked up, palmitoylation of residues on the C-cys anchor; limited glycosylation, acylation and palmitoylation modelled where density allowed, P2X7 receptor (P2X purinoceptor 7), human, full-length wild type, no mutations or truncations; UniProt Q99572; The construct carries a C-terminal GFP, a 3C protease site and a histidine tag; the protein was digested with HRV 3C protease before SEC; also called hP2X7R; hP2X7; not shown: GFP, C-terminal, cleaved) MPACCSCSDVFQYETNKVTRIQSMNYGTIKWFFHVIIFSYVCFALVSDKLYQRKEPVISSVHTKVKGIAEVKEEIVENGVKKLVHSVFDTADYTFPLQGNSFFVMTNFLKTEGQEQRLCPEYPTRRTLCSSDRGCKKGWMDPQSKGIQTGRCVVYEGNQKTCEVSAWCPIEAVEEAPRPALLNSAENFTVLIKNNIDFPGHNYTTRNILPGLNITCTFHKTQNPQCPIFRLGDIFRETGDNFSDVAIQGGIMGIEIYWDCNLDRWFHHCRPKYSFRRLDDKTTNVSLYPGYNFRYAKYYKENNVEKRTLIKVFGIRFDILVFGTGGKFDIIQLVVYIGSTLSYFGLAAVFIDFLIDTYSSNCCRSHIYPWCKCCQPCVVNEYYYRKKCESIVEPKPTLKYVSFVDESHIRMVNQQLLGRSLQDVKGQEVPRPAMDFTDLSRLPLALHDTPPIPGQPEEIQLLRKEATPRSRDSPVWCQCGSCLPSQLPESHRCLEELCCRKKPGACITTSELFRKLVLSRHVLQFLLLYQEPLLALDVDSTNSRLRHCAYRCYATWRFGSQDMADFAILPSCCRWRIRKEFPKSEGQYSGFKSPY | 3 |
